According to US20180057557A1 (University of Pennsylvania, published 2018):

Target: T1, recombinant folate receptor alpha protein (immobilized) (UniProt P15328 25-233, limits assumed)
T1 construct: also called FRa
Test: binding of GFP+ IR T cells to immobilized recombinant protein (FIG. 3A)

T1 sequence (P15328 25-233 limits assumed): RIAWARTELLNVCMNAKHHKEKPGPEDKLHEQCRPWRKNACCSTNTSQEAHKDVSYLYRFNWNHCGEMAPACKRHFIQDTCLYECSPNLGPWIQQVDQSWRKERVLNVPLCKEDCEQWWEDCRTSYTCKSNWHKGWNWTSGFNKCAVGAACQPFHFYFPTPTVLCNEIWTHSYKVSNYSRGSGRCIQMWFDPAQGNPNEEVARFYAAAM

Binder | binding result
Anti-FSHRb51-65FSH-28z immunoreceptor (on primary human T cells) (other, not shown: large carriers, Chimeric immunoreceptor on transduced primary human T cells; also called anti-FSHR (51-65)-28z IR; Anti-FSHR(51-65)-28z) not shown | no binding
Anti-FSHRb33-53FSH-28z immunoreceptor (on primary human T cells) (other, also called anti-FSHR (33-53)-28z IR; Anti-FSHR(33-53)-28z) not shown | no binding
